Patent publication US20150306234
Numbering of substitutions follows the chain as printed.

Tests used:
BDD FVIII mutein F2093C = tested on: T1, BDD FVIII mutein F2093C
T1 sequence: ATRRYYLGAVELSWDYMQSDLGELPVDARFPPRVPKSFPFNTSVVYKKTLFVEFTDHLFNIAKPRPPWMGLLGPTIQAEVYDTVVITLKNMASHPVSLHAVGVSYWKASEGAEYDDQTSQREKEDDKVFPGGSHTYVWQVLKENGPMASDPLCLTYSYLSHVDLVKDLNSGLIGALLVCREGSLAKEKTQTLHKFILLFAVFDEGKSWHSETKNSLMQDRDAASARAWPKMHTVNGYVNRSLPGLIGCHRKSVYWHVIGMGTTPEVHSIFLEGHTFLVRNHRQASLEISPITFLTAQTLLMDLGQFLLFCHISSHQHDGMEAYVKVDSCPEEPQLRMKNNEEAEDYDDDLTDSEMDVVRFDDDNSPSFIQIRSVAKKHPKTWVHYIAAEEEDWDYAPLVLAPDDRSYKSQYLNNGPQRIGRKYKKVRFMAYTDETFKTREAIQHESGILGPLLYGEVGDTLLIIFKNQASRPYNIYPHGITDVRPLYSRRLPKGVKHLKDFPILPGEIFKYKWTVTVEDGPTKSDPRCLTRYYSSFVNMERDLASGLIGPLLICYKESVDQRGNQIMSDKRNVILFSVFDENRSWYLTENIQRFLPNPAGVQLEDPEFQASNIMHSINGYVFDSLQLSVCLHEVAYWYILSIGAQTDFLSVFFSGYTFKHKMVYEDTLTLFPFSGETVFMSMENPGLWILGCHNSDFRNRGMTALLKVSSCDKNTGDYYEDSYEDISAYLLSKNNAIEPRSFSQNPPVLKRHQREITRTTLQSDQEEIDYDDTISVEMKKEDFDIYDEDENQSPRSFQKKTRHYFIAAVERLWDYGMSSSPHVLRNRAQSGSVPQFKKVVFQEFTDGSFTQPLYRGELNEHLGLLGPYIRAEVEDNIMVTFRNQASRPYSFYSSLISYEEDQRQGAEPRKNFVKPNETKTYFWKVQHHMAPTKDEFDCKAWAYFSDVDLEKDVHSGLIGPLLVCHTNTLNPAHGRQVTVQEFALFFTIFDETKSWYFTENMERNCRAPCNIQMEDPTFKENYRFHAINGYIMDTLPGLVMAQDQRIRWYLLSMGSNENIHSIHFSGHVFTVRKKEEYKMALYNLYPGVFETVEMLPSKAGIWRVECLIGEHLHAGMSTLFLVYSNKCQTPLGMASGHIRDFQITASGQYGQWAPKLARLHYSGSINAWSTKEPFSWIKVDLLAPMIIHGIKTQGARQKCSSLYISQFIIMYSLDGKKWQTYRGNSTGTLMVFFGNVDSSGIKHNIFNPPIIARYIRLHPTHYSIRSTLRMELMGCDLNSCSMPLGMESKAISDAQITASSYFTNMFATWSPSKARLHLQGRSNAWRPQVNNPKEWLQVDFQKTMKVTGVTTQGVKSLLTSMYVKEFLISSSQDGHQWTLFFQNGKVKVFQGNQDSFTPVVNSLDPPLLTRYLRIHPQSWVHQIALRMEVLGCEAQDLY

BDD FVIII mutein S2206C = tested on: T2, BDD FVIII mutein S2206C
T2 sequence: T1 sequence with C1199F, S1312C

For “thrombin (Haematologic Technologies, Essex Junction, Vt.)”, the “thrombin cleavage, SDS-PAGE with silver staining” value (BDD FVIII mutein F2093C) was “Thrombin digestion of the muteins and control produced the expected cleavage fragments” and the “thrombin cleavage, SDS-PAGE with silver staining” value (BDD FVIII mutein S2206C) was “Thrombin digestion of the muteins and control produced the expected cleavage fragments”.
